The results in this text go back to US20040138122A1.

Common to all, as to test: cell-based or functional assay
Test [1] has as its target T1, zcyto20 (human IL-28A) (human) (UniProt Q8IZJ0).
T1 sequence: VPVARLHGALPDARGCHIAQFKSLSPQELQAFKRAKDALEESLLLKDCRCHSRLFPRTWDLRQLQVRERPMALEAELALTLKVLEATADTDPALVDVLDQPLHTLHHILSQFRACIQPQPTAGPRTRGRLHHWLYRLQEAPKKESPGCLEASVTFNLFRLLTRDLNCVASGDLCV

Test [2] concerns the target zcyto21 (human IL-29) (human) (UniProt Q8IU54).
In test [3] the target is T2, zcyto24 (mouse IL-28A) (mouse) (UniProt Q4VK74).
T2 sequence: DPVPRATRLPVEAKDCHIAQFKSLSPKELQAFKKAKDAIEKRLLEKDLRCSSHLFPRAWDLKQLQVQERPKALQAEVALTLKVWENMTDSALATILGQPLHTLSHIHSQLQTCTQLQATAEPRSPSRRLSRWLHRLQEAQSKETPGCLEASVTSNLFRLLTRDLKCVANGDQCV

Sequence of zcyto21 (human IL-29) (human) (Q8IU54 20-200): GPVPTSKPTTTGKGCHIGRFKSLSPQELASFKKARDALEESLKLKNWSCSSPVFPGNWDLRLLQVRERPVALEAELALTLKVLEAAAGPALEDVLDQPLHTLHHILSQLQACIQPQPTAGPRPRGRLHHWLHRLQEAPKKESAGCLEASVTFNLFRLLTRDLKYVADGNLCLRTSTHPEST

B1: human zcytor19-Fc homodimer (Fc fusion, not shown: a dimerising Fc or GST)
chain: RPRLAPPQNVTLLSQNFSVYLTWLPGLGNPQDVTYFVAYQSSPTRRRWREVEECAGTKELLCSMMCLKKQDLYNKFKGRVRTVSPSSKSPWVESEYLDYLFEVEPAPPVLVLTQTEEILSANATYQLPPCMPPLDLKYEVAFWKEGAGNKTLFPVTPHGQPVQITLQPAASEHHCLSARTIYTFSVPKYSKFSKPTCFLLEVPEAN
For B1, the Percent Inhibition of Ligand-induced Interferon Stimulated Response Element (ISRE) Signaling by Soluble Receptors in test [1] turned out to be 92%; in test [2] it was 45%; in test [3], 90%.
